From patent publication US20080131910A1 (LUDWIG INSTITUTE FOR CANCER RESEARCH, published 2008) come the findings set out here.

The target of assay [1] is T1, ALK-5 (activin receptor like kinase 5), human TGF-β type I receptor (human, UniProt P36897 25-503).
T1 construct: Expressed from cDNA in COS-1 cells and PAE cells (PAE/TβR-I), or endogenous in human cell lines (AG1518, A549, HSC-2, HUVEC); also called hALK-5; clone EMBLA
T1 sequence: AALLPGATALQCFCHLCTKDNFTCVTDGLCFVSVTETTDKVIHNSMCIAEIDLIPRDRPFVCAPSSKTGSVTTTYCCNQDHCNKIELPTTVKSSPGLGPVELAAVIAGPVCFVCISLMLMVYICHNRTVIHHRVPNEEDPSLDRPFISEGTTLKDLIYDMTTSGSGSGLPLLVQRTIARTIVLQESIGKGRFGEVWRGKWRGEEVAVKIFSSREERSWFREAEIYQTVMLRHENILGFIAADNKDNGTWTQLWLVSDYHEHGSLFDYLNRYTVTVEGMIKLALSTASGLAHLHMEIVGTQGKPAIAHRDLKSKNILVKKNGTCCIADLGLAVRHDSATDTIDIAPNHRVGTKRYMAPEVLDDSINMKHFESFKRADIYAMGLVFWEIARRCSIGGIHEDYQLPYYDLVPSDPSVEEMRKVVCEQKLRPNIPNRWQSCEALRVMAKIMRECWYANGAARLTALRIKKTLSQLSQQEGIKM
Put plainly: affinity cross-linking followed by immunoprecipitation, COS-1 cells co-transfected with ActR-II and the ALK.

For assay [2], the target named is T2, ALK-6 (activin receptor like kinase 6), mouse (mouse, UniProt P36898 14-502).
T2 construct: Expressed from cDNA in COS-1 cells; also called mALK-6; clone ME-6
T2 sequence (P36898 14-502 limits assumed): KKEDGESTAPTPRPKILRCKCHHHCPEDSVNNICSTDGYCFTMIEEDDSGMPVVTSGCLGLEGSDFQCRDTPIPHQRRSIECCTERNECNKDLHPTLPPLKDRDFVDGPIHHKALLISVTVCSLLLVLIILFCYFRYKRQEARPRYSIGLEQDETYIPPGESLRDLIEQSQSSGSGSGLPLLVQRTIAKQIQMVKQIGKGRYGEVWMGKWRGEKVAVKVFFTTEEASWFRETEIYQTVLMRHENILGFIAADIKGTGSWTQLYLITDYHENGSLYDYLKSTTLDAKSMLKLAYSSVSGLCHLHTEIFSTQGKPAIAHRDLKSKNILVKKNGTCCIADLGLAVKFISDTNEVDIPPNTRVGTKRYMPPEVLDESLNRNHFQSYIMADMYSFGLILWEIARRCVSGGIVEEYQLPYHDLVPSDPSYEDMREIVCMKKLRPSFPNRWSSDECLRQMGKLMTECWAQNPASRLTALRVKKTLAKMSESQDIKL
Described as above.

B1: Recombinant human activin A (ligand, UniProt P08476 311-426, looked up)
chain: GLECDGKVNICCKKQFFVSFKDIGWNDWIIAPSGYHANYCEGECPSHIAGTSGSSLSFHSTVINHYRMRGHSPFANLKSCCVPTKLRPMSMLYYDDGQNIIKKDIQNMIVEECGCS
modifications: 125I-iodinated (chloramine T method)
Turning to B1, the binding result in assay [1] and in assay [2] was “binds” throughout.
